Assay results: paper PMC11812572, “NuMA is a mitotic adaptor protein that activates dynein and connects it to microtubule minus ends” (The Journal of Cell Biology, 2025)

Molecular target: the molecule itself
Assay: mass photometry; TwoMP mass photometer; 5-20 nM protein in the respective TIRF microscopy assay buffer without methylcellulose; monomer to dimer

B1: mScarlet-tagged human NuMA C-terminal fragment aa 1560-2115, mScarlet-NuMA^(C-term L) (domain or fragment, UniProt Q14980-1 1560-2115, looked up)
chain: TSDQASKVQQQKLKAVQAQGGESQQEAQRLQAQLNELQAQLSQKEQAAEHYKLQMEKAKTHYDAKKQQNQELQEQLRSLEQLQKENKELRAEAERLGHELQQAGLKTKEAEQTCRHLTAQVRSLEAQVAHADQQLRDLGKFQVATDALKSREPQAKPQLDLSIDSLDLSCEEGTPLSITSKLPRTQPDGTSVPGEPASPISQRLPPKVESLESLYFTPIPARSQAPLESSLDSLGDVFLDSGRKTRSARRRTTQIINITMAKKLDVEEPDSANSSFYSTRSAPASQASLRATSSTQSLARLGSPDYGNSALLSLPGYRPTTRSSARRSQAGVSSGAPPGRNSFYMGTCQDEPEQLDDWNRIAELQQRNRVCPPHLKTCYPLESRPSLSLGTITDEEMKTGDPQETLRRASMQPIQIAEGTGITTRQQRKRVSLEPHQGPGTPESKKATSCFPRPMTPRDRHEGRKQSTTEAQKKAAPASTKQADRRQSMAFSILNTPKKLGNSLLRRGASKKALSKASPNTRSGTRRSPRIATTTASAATAAAIGATPRAKGKAKHLE
notes: NuMA, human, isoform 1 (NM_006185), aa 1560-2115: part of the predicted coiled-coil and the entire C-terminal tail; Mixed population of monomers and dimers by mass photometry; source: Sf21 insect cells (baculovirus), purified (StrepTrap, TEV cleavage, SEC); not shown: Strep-tag II, N-terminal, cleaved; mScarlet, N-terminal, kept
stoichiometry N: 2

B2: AF546- or AF647-labelled SNAP-tagged human NuMA N-terminal fragment (first 705 aa), NuMA^N-term (domain or fragment, UniProt Q14980-1 1-705, looked up)
chain: MTLHATRGAALLSWVNSLHVADPVEAVLQLQDCSIFIKIIDRIHGTEEGQQILKQPVSERLDFVCSFLQKNRKHPSSPECLVSAQKVLEGSELELAKMTMLLLYHSTMSSKSPRDWEQFEYKIQAELAVILKFVLDHEDGLNLNEDLENFLQKAPVPSTCSSTFPEELSPPSHQAKREIRFLELQKVASSSSGNNFLSGSPASPMGDILQTPQFQMRRLKKQLADERSNRDELELELAENRKLLTEKDAQIAMMQQRIDRLALLNEKQAASPLEPKELEELRDKNESLTMRLHETLKQCQDLKTEKSQMDRKINQLSEENGDLSFKLREFASHLQQLQDALNELTEEHSKATQEWLEKQAQLEKELSAALQDKKCLEEKNEILQGKLSQLEEHLSQLQDNPPQEKGEVLGDVLQLETLKQEAATLAANNTQLQARVEMLETERGQQEAKLLAERGHFEEEKQQLSSLITDLQSSISNLSQAKEELEQASQAHGARLTAQVASLTSELTTLNATIQQQDQELAGLKQQAKEKQAQLAQTLQQQEQASQGLRHQVEQLSSSLKQKEQQLKEVAEKQEATRQDHAQQLATAAEEREASLRERDAALKQLEALEKEKAAKLEILQQQLQVANEARDSAQTSVTQAQREKAELSRKVEELQACVETARQEQHEAQAQVAELELQLRSEQQKATEKERVAQEKDQLQEQLQ
modifications: SNAP-tag labelled with SNAP-Surface Alexa Fluor 546 or SNAP-Surface Alexa Fluor 647
notes: nuclear mitotic apparatus protein (NuMA), human, isoform 1 (NM_006185), first 705 aa; two stop codons inserted after aa 705; codon-optimised for S. frugiperda; A PreScission site lies between the SNAP-tag and NuMA; Dimeric by mass photometry; the construct described is SNAP-tagged; also called AF546-NuMA^N-term; AF647-NuMA^N-term; source: Sf21 insect cells (baculovirus), purified (StrepTrap, TEV …)
stoichiometry N: 2
